First the molecules themselves.
T1: human CD25-extracellular domain (CD25-ECD) (UniProt P01589 22-240)
T1 chain: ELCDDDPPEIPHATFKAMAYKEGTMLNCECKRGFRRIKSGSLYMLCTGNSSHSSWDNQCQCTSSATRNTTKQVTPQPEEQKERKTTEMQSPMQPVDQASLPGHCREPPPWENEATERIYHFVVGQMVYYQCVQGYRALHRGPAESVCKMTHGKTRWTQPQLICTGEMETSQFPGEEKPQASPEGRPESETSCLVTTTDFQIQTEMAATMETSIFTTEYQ

B1: ODY-N1783Hu1 (antibody, V domains shown)
VH: EVQLLESGGGLAQPGGSLRLSCAASGFTFSNYAMSWARQAPGKGLEWVSGIYSDGSGTYYADSVKGRFTISRDNAKNTVYLQMNSLRPEDTAVYYCSKGARSGSYYPWDDVWGQGTQVTVSS
B2: ODY-N1769Hu1 (antibody, V domains shown)
VH: EVQLLESGGGLAQPGGSLRLSCAASGFTFSNYAMSWVRQAPGKGLEWVSGIYSDGSGTYYADSVKGRFTISRDNAKNTVYLQMNSLRPEDTAVYYCSKGRHSGSYYPWDEYWGQGTQVTVSS
B3: ODY-48D11Hu1 (antibody, V domains shown)
VH: EVQLLESGGGLVQPGGSLRLSCAASGFTFSNYAMSWARQAPGKGLEWVSGIYSDGSGTYYADSVKGRFTISRDNAKNTVYLQMNSLRPEDTAVYYCAKGRNSGSYYPFDDYWGQGTQVTVSS
B4: ODY-48C10Hu1 (antibody, V domains shown)
VH: EVQLLESGGGLAQPGGSLRLSCAASGFTFSNYAMSWTRQAPGKGLEWVSGIYSDGSGTYYADSVKGRFTISRDNAKNTVYLQMNSLRPEDTAVYYCAKGRNSGSYYPFDDYWGQGTQVTVSS
B5: ODY-N1998Hu1 (antibody, V domains shown)
VH: EVQLVESGGGLVQPGGSLRLSCAASGRRFSTLIMGWYRQAPGKQRELVATIERGGTPTYADSVKGRFTISRDNAKNTVYLQMNSLRPEDTAVYYCKTLRYWGQGTQVTVSS
B6: ODY-N1999Hu1 (antibody, V domains shown)
VH: EVQLVESGGGLVQPGGSLRLSCAASGRKFSTLIMGWYRQAPGKQRELVATIERDDTTTYADSVKGRFTISRDNAKNTVYLQMNSLRPEDTAVYYCKTLRYWGQGTQVTVSS
B7: ODY-N2000Hu1 (antibody, V domains shown)
VH: EVQLVESGGGLVQPGGSLRLSCAASGRKFSTLIMGWYRQAPGKQRELVATIERDDTTTYADSVKGRFTISRDNAKNTVYLQMNSLRPEDTAVYYCTTLRYWGQGTQVTVSS
B8: ODY-N2001Hu1 (antibody, V domains shown)
VH: EVQLVESGGGLVQPGGSLRLSCAASGRKFSTLIMAWYRQAPGKQRELVATIDRDGTTTYADSVKGRFTISRDNAKNTVYLQMNSLRPEDTAVYYCKTLRYWGQGTQVTVSS
B9: 46A3 (VHH)
VHH: EVQLLESGGGLAQPGGSLRLSCAASGFTFSNYAMSWARQAPGKGLEWVSGIYSDGSGTYYADSVKGRFTISRDNAKNTVYLQMNSLRPEDTAVYYCAKGRNSGSYYPWDDYWGQGTQVTVSS
B10: ODY-N2011Hu1 (antibody, V domains shown)
VH: EVQLLESGGGLVQPGGSLRLSCAASGRTFASFGMGWFRQAPGKEREFVAAISQGGGRTRYADSVKGRFTISRDDAKNTVYLQMNSLRPEDTAVYYCAASYFLLATTISGYDYWGQGTQVTVSS
B11: ODY-N2005Hu1 (antibody, V domains shown)
VH: EVQLLESGGGLVQPGGSLRLSCAASGRTFSSYGMGWFRQAPGKEREFVAAISQSGGRTRYADSVKGRFTISRDNAKNTVYLQMNSLRPEDTAVYYCAATNFLIATTISAYDYWGQGTQVTVSS
B12: ODY-N2010Hu1 (antibody, V domains shown)
VH: EVQLLESGGGLVQPGGSLRLSCAASGRTFSSYGMGWFRQAPGKEREFVVAISGSGGRTRYADSVKGRFTISRDNAKNTVYLQMNSLRPEDTAVYYCAASDFLIATSISAYDYWGQGTQVTVSS
B13: ODY-N2008Hu1 (antibody, V domains shown)
VH: EVQLLESGGGLVQPGGSLRLSCAASGRTFASFGMGWFRQAPGKEREFVAAISRGGGRTRYADSVKGRFTISRDDAKNTVYLQMNSLRPEDTAVYYCAASYFLLATTISGYDYWGQGTQVTVSS
B14: ODY-N1808Hu1 (antibody, V domains shown)
VH: EVQLLESGGGLAQPGGSLRLSCAASGFTFSNYAMSWVRQAPGKGLEWVSGIYSDGSGTYYADSVKGRFTISRDNAKNTVYLQMNSLRPEDTAVYYCATGKHSGSYYPWDDYWGQGTQVTVSS
B15: ODY-N1812Hu1 (antibody, V domains shown)
VH: EVQLLESGGGLAQPGGSLRLSCAASGFTFSNYAMSWARQAPGKGLEWVSGIYSDSSGTYYADSVKGRFTISRDNAKNTVYLQMNSLRPEDTAVYYCAKGRGSGGYYPFDDYWGQGTQVTVSS
B16: ODY-N1811Hu1 (antibody, V domains shown)
VH: EVQLLESGGGLAQPGGSLRLSCAASGFTFSNYAMSWARQAPGKGLEWVSGIYSDSSGTYYADSVKGRFTISRDNAKNTVYLQMNSLRPEDTAVYYCAKGRGSGSYYPLDDYWGQGTQVTVSS
B17: ODY-N1810Hu1 (antibody, V domains shown)
VH: EVQLLESGGGLAQPGGSLRLSCAASGFTFSNYAMSWARQAPGKGLEWVSGIYSDSSGTYYADSVKGRFTISRDNAKNTVYLQMNSLRPEDTAVYYCVKGRGSGSYYPFDDYWGQGTQVTVSS
B18: ODY-N1978Hu1 (antibody, V domains shown)
VH: EVQLVESGGGLVQPGGSLRLSCAASGRSFSTLIMGWYRQAPGKQRELVATIERGGTTTYADSVKGRFTISRDNAKNTVYLQMNSLRPEDTAVYYCNALRDWGQGTQVTVSS
B19: ODY-N1974Hu1 (antibody, V domains shown)
VH: EVQLVESGGGLVQPGGSLRLSCAASGRKFSTLIMAWYRQAPGKQRELVATVDRGGTTTYADSVKGRFTISRDNAKNTTYLQMNSLRPEDTAVYYCNALRNWGQGTQVTVSS
B20: ODY-N2022Hu1 (antibody, V domains shown)
VH: EVQLLESGGGLVQPGGSLRLSCAASGRTFSSYGMGWFRQAPGKEREFVAAISQSGGRTRYADSVKGRFTISRDNAKNTVYLQMNSLRPEDTAVYYCAATKFLIATTISAYDYWGQGTQVTVSS
B21: ODY-N2024Hu1 (antibody, V domains shown)
VH: EVQLLESGGGLVQPGGSLRLSCAASGRTFSSYGMGWFRQAPGKEREFVAAISQSGGRTRYADSVKGRFTISRDNVKNTVYLQMNSLRPEDTAVYYCAATNFLIATTISAHDYWGQGTQVTVSS
B22: ODY-N2017Hu1 (antibody, V domains shown)
VH: EVQLLESGGGLVQPGGSLRLSCAASGRTFSSYGMGWFRQAPGKEREFVAAISQSGGRTRYADSVKGRFTISRDNAKNTVYLQMNSLRPEDTAVYYCAATNFLIAATISAYDYWGQGTQVTVSS
B23: ODY-N2016Hu1 (antibody, V domains shown)
VH: EVQLLESGGGLVQPGGSLRLSCAASGRTFADFGMGWFRQAPGKEREFVAAISRSGGRTRYADSVKGRFTISRDDAKNTVYLQMNSLRPEDTAVYYCAASYFLLAITISGYDYWGQGTQVTVSS
B24: ODY-N2027Hu1 (antibody, V domains shown)
VH: EVQLLESGGGLVQPGGSLRLSCAASGRTFSSYGMGWFRQAPGKEREFVAAISQSGGRTRYADSVKGRFTISRDNAKNTVYLQMNSLRPEDTAVYYCAATNFLIATAISAYDYWGQGTQVTVSS
B25: ODY-N2025Hu1 (antibody, V domains shown)
VH: EVQLLESGGGLVQPGGSLRLSCAASGRTFSSYGMGWFRQAPGKEREFVAAISQSGGRTRYADSVKGRFTISRDNAKNTVYLQMNSLRPEDTAVYYCAATNVLIATTISAYDYWGQGTQVTVSS
B26: ODY-N2026Hu1 (antibody, V domains shown)
VH: EVQLLESGGGLVQPGGSLRLSCAASGRTFSSYGMGWFRQAPGKEREFVAAISQSGGRTRYADSVKGRFTISRDNAKNTVYLQMNSLRPEDTAVYYCAATNFPIATTISAYDYWGQGTQVTVSS
B27: ODY-N1970Hu1 (antibody, V domains shown)
VH: EVQLVESGGGLVQPGGSLRLSCAASGRSFSTLIMGWYRQAPGKQRELVATIERGGTTTYADSVKGRFTISRDNAKNTVYLQMNSLRPEDTAVYYCNALLYWGQGTQVTVSS
B28: ODY-N1961Hu1 (antibody, V domains shown)
VH: EVQLVESGGGLVQPGGSLRLSCAASGRSFSTLIMAWYRQAPGKQRELVATIERGGTTTYADSVKGRFTASRDNAKNTVYLQMNSLRPEDTAVYYCNALGYWGQGTQVTVSS
B29: ODY-N1955Hu1 (antibody, V domains shown)
VH: EVQLVESGGGLVQPGGSLRLSCAASGRSFSTLIMAWYRQAPGKQRELVATIERGGTPTYADSVKGRFTISRDNAKNTVYLQMNSLRPEDTAVYYCNALGYWGQGTQVTVSS

For orientation: Kd means the free concentration of one partner at which half of the binding sites on the other are occupied at equilibrium, for simple one-to-one binding. A higher Kd goes with a looser complex.

One assay addresses T1, human CD25-extracellular domain …. Description: SPR. (In general: Surface plasmon resonance follows binding to a sensor surface in real time, without labels.)
B1 showed a Kd of 107 nM.

Molecule B2 yielded a dissociation constant Kd of 49 nM.

As to B3, binding was characterised by a dissociation constant (Kd) of 102 nM.

For the molecule B4, the Kd was 66 nM.

A further assay has the same target. Description: SPR. The source holds these as a separate data set.
Molecule B5 yielded a Kd of 31 nM.

B6 gave a Kd of 13 nM.

Molecule B7 gave a Kd of 14 nM.

As for B8, binding was put at a Kd of 18 nM.

The next assay addresses cCD25. Description: SPR.
The molecule B9 yielded a Kd of 34 nM.

Another assay deals with T1, human CD25-extracellular domain …. Description: SPR. The source holds these as a separate data set.
B10 displayed a Kd of 9.4 nM.

With B11, the Kd came out at 13 nM.

Take B12: the Kd was determined as 9.4 nM.

On to B13, for which the Kd worked out at 22 nM.

A further assay has the same target. Description: SPR. This is another data set of the same source.
In turn, B14 showed a Kd of 241 nM.

In turn, B15 gave a Kd of 149 nM.

On to B16, for which the Kd came to 348 nM.

B17 displayed a Kd of 62 nM.

For the next assay the target is unchanged. Description: SPR. This is another data set of the same source.
Regarding B18, the affinity, expressed as Kd, was 26 nM.

As to B19, the Kd came out at 20 nM.

The target is the same in the next assay. Description: SPR. The source holds these as a separate data set.
B20 gave a Kd of 17 nM.

Consider B21, for which the Kd was determined as 19 nM.

B22 showed a Kd of 13 nM.

As to B23, the affinity, expressed as Kd, was 12 nM.

The target is the same in another assay. Description: SPR. The source holds these as a separate data set.
As for B24, the affinity, expressed as Kd, was 10 nM.

In turn, B25 yielded a Kd of 14 nM.

For the molecule B26, the Kd came out at 11 nM.

A further assay shares this target. Description: SPR. This is another data set of the same source.
Molecule B27 displayed a Kd of 12 nM.

Molecule B28 showed a Kd of 11 nM.

Take B29: the Kd amounted to 13 nM.

These data come from US20260258143A1 (published 2026).
